These sequences were tested against FGFR3 (UniProt P22607) (assay: phosphorylation enrichment, bacterial display (enrichment ratio); higher = better substrate or ligand; peptides without Tyr show the background).
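Note: 11-residue human phosphosite peptides and single-mutation variants displayed on the E. coli surface, counted by deep sequencing, each peptide's frequency after selection divided by its frequency in the unselected input library; frequency after pTyr selection over input frequency; kinase dosed for 20-30% of maximal phosphorylation in three min.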

Sequence of FGFR3 (P22607 whole entry, looked up): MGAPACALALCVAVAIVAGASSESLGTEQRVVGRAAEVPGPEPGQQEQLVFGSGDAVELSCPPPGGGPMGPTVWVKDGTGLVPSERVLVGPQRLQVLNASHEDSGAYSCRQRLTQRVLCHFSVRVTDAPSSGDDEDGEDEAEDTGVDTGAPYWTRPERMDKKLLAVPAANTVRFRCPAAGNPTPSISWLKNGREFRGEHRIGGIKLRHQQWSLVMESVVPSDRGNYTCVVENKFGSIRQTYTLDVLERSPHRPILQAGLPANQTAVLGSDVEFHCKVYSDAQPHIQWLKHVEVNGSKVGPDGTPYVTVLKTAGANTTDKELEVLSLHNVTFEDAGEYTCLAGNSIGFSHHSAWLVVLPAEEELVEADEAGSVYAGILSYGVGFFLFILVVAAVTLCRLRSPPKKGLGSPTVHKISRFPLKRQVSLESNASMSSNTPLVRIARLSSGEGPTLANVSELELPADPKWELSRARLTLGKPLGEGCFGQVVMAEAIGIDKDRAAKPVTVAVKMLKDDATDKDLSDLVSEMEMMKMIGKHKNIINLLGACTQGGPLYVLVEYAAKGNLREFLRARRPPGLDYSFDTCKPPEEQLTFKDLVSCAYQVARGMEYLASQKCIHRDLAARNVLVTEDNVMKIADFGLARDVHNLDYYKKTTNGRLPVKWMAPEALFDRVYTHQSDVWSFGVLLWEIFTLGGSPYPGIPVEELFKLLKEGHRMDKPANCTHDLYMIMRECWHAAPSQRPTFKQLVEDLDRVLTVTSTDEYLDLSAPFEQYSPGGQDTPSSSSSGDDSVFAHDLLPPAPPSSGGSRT

Sequence | phosphorylation enrichment
SGSIHYSRVPR [GLB1_Y57] | 0.578
KDHLDYKYQPR [SOX9_Y172_P170L] | 0.629
VVLVSYVPFSQ [SH2B1_Y624_S627F] | 0.771
QYKDKYLAKHN [CASK_Y712] | 0.663
MAFDRYVAVCA [OR52J3_Y125] | 0.582
TEDELYQLSLQ [RASGRP2_Y378] | 0.759
EKQVAYCPSGR [ROS1_Y2323_K2328R] | 0.705
ASNNPYFRDQA [RPGRIP1_Y846] | 0.656
GVFSRHFTTFD [CLCA1_Y661_Y661H_YF] | 0.814
DLDFTYIYPNI [PTEN_Y27_L25F] | 3.11
GASRRYGSGVS [NEU1_Y242_W240R] | 0.439
RRVLVYRGRGA [QDPR_Y16_G17R] | 0.779
NTGNYYDLYGG [PTPN11_Y63_D61N] | 12.6
VNKIFYPDFIV [LIG3_Y768_YF] | 0.584
GKSFTYAAFHA [KCNT1_Y563] | 0.583
QTEAEYRFIFM [PTPN11_Y511_Q510E_YF] | 1.42
IGSHAYGDQYR [IDH1_Y135_R132S] | 0.517
GGYTCYSDGKK [PROS1_Y266_C267S] | 0.826
INQGPYENHSV [ATP6V1B1_Y462_R465H] | 0.524
KEKLCYVALDF [ACTA1_Y220] | 2.15
KDQPDYKYQPR [SOX9_Y172_H169Q] | 0.557
FLENFYDLKKD [MMP3_Y42_YF] | 0.551
SSPQPYLVPFL [TAF4_Y652] | 0.746
AVIADYMFWLG [SPATA16_Y290_M286V] | 10.7
SISLRYEGRVF [ABL1_Y167_YF] | 0.838
ENRKYYKDLKE [PURA_Y156_M157K] | 0.457
DPFHVYIKNHV [KCNE3_Y95_R99H_YF] | 0.918
SVKVFYKKCWS [EPHA7_Y202_YF] | 0.841
MSRDIYSTDFF [NTRK1_Y676_YF] | 1.65

What follows are sequences tested on Fer (mouse) in the same assay as above.

Sequence | phosphorylation enrichment
SGSIHYSRVPR [GLB1_Y57] | 0.535
KDHLDYKYQPR [SOX9_Y172_P170L] | 0.445
VVLVSYVPFSQ [SH2B1_Y624_S627F] | 0.501
QYKDKYLAKHN [CASK_Y712] | 0.349
MAFDRYVAVCA [OR52J3_Y125] | 0.468
TEDELYQLSLQ [RASGRP2_Y378] | 2.94
EKQVAYCPSGR [ROS1_Y2323_K2328R] | 0.675
ASNNPYFRDQA [RPGRIP1_Y846] | 0.434
GVFSRHFTTFD [CLCA1_Y661_Y661H_YF] | 0.946
DLDFTYIYPNI [PTEN_Y27_L25F] | 0.501
GASRRYGSGVS [NEU1_Y242_W240R] | 0.43
RRVLVYRGRGA [QDPR_Y16_G17R] | 0.618
NTGNYYDLYGG [PTPN11_Y63_D61N] | 2.82
VNKIFYPDFIV [LIG3_Y768_YF] | 0.5
GKSFTYAAFHA [KCNT1_Y563] | 0.454
QTEAEYRFIFM [PTPN11_Y511_Q510E_YF] | 0.847
IGSHAYGDQYR [IDH1_Y135_R132S] | 0.374
GGYTCYSDGKK [PROS1_Y266_C267S] | 0.593
INQGPYENHSV [ATP6V1B1_Y462_R465H] | 9.94
KEKLCYVALDF [ACTA1_Y220] | 1.29
KDQPDYKYQPR [SOX9_Y172_H169Q] | 0.491
FLENFYDLKKD [MMP3_Y42_YF] | 0.472
SSPQPYLVPFL [TAF4_Y652] | 0.466
AVIADYMFWLG [SPATA16_Y290_M286V] | 2
SISLRYEGRVF [ABL1_Y167_YF] | 0.686
ENRKYYKDLKE [PURA_Y156_M157K] | 0.318
DPFHVYIKNHV [KCNE3_Y95_R99H_YF] | 0.585
SVKVFYKKCWS [EPHA7_Y202_YF] | 0.532
MSRDIYSTDFF [NTRK1_Y676_YF] | 1.63

These sequences were tested against Fes (UniProt P07332) in the same assay as above.
Sequence of Fes (P07332 whole entry, looked up): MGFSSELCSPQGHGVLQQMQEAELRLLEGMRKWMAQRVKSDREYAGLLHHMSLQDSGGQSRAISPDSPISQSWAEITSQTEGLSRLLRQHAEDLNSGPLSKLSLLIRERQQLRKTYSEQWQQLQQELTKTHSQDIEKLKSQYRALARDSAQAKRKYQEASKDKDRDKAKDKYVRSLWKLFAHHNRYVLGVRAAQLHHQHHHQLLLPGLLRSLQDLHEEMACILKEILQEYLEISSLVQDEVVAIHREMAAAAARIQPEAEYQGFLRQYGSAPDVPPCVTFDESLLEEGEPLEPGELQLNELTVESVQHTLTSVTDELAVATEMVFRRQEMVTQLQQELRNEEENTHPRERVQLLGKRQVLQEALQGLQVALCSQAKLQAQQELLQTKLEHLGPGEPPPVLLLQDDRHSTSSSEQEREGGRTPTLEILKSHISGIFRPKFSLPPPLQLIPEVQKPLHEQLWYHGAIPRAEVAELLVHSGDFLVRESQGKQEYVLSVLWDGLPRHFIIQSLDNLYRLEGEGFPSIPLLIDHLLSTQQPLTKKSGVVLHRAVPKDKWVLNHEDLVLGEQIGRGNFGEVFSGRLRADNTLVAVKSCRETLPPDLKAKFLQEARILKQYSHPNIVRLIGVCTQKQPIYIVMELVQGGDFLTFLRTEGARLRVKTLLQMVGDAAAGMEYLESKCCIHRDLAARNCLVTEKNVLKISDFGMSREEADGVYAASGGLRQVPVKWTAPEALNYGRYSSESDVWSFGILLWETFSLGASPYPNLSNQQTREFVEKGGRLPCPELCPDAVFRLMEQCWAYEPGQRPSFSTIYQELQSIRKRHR

Sequence | phosphorylation enrichment
SGSIHYSRVPR [GLB1_Y57] | 0.763
KDHLDYKYQPR [SOX9_Y172_P170L] | 0.704
VVLVSYVPFSQ [SH2B1_Y624_S627F] | 1.37
QYKDKYLAKHN [CASK_Y712] | 0.927
MAFDRYVAVCA [OR52J3_Y125] | 1.08
TEDELYQLSLQ [RASGRP2_Y378] | 1.27
EKQVAYCPSGR [ROS1_Y2323_K2328R] | 1.18
ASNNPYFRDQA [RPGRIP1_Y846] | 0.694
GVFSRHFTTFD [CLCA1_Y661_Y661H_YF] | 1.05
DLDFTYIYPNI [PTEN_Y27_L25F] | 1.23
GASRRYGSGVS [NEU1_Y242_W240R] | 0.539
RRVLVYRGRGA [QDPR_Y16_G17R] | 0.991
NTGNYYDLYGG [PTPN11_Y63_D61N] | 0.984
VNKIFYPDFIV [LIG3_Y768_YF] | 1.08
GKSFTYAAFHA [KCNT1_Y563] | 0.812
QTEAEYRFIFM [PTPN11_Y511_Q510E_YF] | 1.32
IGSHAYGDQYR [IDH1_Y135_R132S] | 0.619
GGYTCYSDGKK [PROS1_Y266_C267S] | 1.22
INQGPYENHSV [ATP6V1B1_Y462_R465H] | 0.804
KEKLCYVALDF [ACTA1_Y220] | 1.17
KDQPDYKYQPR [SOX9_Y172_H169Q] | 0.643
FLENFYDLKKD [MMP3_Y42_YF] | 1.02
SSPQPYLVPFL [TAF4_Y652] | 0.78
AVIADYMFWLG [SPATA16_Y290_M286V] | 1.3
SISLRYEGRVF [ABL1_Y167_YF] | 1.26
ENRKYYKDLKE [PURA_Y156_M157K] | 0.766
DPFHVYIKNHV [KCNE3_Y95_R99H_YF] | 1.32
SVKVFYKKCWS [EPHA7_Y202_YF] | 1.49
MSRDIYSTDFF [NTRK1_Y676_YF] | 1.04

The sequences below were run against Fyn (UniProt P06241) in the same assay as above.
Sequence of Fyn (P06241 whole entry, looked up): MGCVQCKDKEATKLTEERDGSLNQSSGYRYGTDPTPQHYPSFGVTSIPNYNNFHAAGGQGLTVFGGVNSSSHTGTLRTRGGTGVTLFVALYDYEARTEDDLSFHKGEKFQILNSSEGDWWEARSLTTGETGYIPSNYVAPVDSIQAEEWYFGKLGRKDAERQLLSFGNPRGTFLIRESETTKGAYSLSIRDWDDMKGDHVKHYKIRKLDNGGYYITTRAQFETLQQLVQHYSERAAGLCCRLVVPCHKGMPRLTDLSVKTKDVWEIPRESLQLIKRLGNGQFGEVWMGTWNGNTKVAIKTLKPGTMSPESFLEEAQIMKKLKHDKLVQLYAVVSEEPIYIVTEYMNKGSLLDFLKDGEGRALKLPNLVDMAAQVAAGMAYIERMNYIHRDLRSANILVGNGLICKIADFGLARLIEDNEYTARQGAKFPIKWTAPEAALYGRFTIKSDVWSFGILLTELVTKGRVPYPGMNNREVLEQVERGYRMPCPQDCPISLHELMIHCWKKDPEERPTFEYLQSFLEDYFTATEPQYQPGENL

Sequence | phosphorylation enrichment
SGSIHYSRVPR [GLB1_Y57] | 0.605
KDHLDYKYQPR [SOX9_Y172_P170L] | 0.441
VVLVSYVPFSQ [SH2B1_Y624_S627F] | 0.55
QYKDKYLAKHN [CASK_Y712] | 0.436
MAFDRYVAVCA [OR52J3_Y125] | 0.438
TEDELYQLSLQ [RASGRP2_Y378] | 0.93
EKQVAYCPSGR [ROS1_Y2323_K2328R] | 0.569
ASNNPYFRDQA [RPGRIP1_Y846] | 0.5
GVFSRHFTTFD [CLCA1_Y661_Y661H_YF] | 0.48
DLDFTYIYPNI [PTEN_Y27_L25F] | 2.5
GASRRYGSGVS [NEU1_Y242_W240R] | 0.384
RRVLVYRGRGA [QDPR_Y16_G17R] | 0.712
NTGNYYDLYGG [PTPN11_Y63_D61N] | 6.39
VNKIFYPDFIV [LIG3_Y768_YF] | 0.464
GKSFTYAAFHA [KCNT1_Y563] | 5.65
QTEAEYRFIFM [PTPN11_Y511_Q510E_YF] | 0.511
IGSHAYGDQYR [IDH1_Y135_R132S] | 0.464
GGYTCYSDGKK [PROS1_Y266_C267S] | 0.458
INQGPYENHSV [ATP6V1B1_Y462_R465H] | 0.471
KEKLCYVALDF [ACTA1_Y220] | 1.03
KDQPDYKYQPR [SOX9_Y172_H169Q] | 0.446
FLENFYDLKKD [MMP3_Y42_YF] | 2.57
SSPQPYLVPFL [TAF4_Y652] | 0.497
AVIADYMFWLG [SPATA16_Y290_M286V] | 0.852
SISLRYEGRVF [ABL1_Y167_YF] | 0.438
ENRKYYKDLKE [PURA_Y156_M157K] | 0.359
DPFHVYIKNHV [KCNE3_Y95_R99H_YF] | 0.382
SVKVFYKKCWS [EPHA7_Y202_YF] | 0.424
MSRDIYSTDFF [NTRK1_Y676_YF] | 6.12

Reference: the supplement of paper PMC10065799, “High-throughput profiling of sequence recognition by tyrosine kinases and SH2 domains using bacterial peptide display” (eLife, 2023)
